Among the data in PMC11234460, “In Silico Discovery of Stapled Peptide Inhibitor Targeting the Nur77‐PPARγ Interaction and Its Anti‐Breast‐Cancer Efficacy” (Advanced Science, 2024) are koff values, retold here.

For orientation: koff means a measure of how fast the partners let go of each other.

Bridges are numbered along the chain shown (N, C = ends). [ ]: non-standard residue; d: D form. S5 = C=CCCC[C@](C)(N)C(=O)O

In the test the target is LBD fragment of human Nur77 (residues 351–598) (human), P22736. As to the kind of experiment: SPR. To be noted: S-pentenyl-alanine (S5) at the i and i + 4 positions (Phe163 & Ile167), joined by ring-closing olefin metathesis (all-hydrocarbon staple), C-terminal primary amide X8 and X12 = S5 (S-pentenyl-alanine, replacing Phe163 and Ile167 of PPARγ), joined by an i,i+4 all-hydrocarbon staple (ring-closing olefin metathesis), free N-terminal amine, Tyr14 replaces Leu169, residues 15-25 are t, modification not given.
Chain of LBD fragment of human Nur77 (residues 351–598) (human), P22736 (P22736 351-598): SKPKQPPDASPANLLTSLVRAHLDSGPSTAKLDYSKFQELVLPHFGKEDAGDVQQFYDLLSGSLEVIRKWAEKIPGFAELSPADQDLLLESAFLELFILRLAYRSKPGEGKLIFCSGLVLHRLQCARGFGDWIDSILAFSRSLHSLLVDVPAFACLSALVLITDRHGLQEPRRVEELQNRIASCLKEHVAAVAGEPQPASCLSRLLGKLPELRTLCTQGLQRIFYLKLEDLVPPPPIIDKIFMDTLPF

As to H-CEGCKGF[S5]RRT[S5]RYYGRKKRRQRRR-NH2 (staple 8-12; cysteine pairing not given here) [ST-CY14 (stapled T-CY14), P37231 156-169], the koff worked out at 0.052 s⁻¹.
